This passage reports protein production results from a protein production outcome set (Wang et al. 2014).

This data set is described as follows: label from the status in PepcDB records.
Turning to “MGAASCEDEELEFKLVFGEEKEAPPLGAGGLGEELDSEDAPPCCRLALGEPPPYGAAPIGIPRPPPPRPGMHSPPPRPAPSPGTWESQPARSVRLGGPGGGAGGAGGGRVLECPSIRITSISPTPEPPAALEDNPDAWGDGSPRDYPPPEGFGGYREAGAQGGGAFFSPSPGSSSLSSWSFFSDASDEAALYAACDEVESELNEAASRFGLGSPLPSPRASPRPWTPEDPWSLYGPSPGGRGPEDSWLLLSAPGPTPASPRPASPCGKRRYSSSGTPSSASPALSRRGSLGEEGSEPPPPPPLPLARDPGSPGPFDYVGAPPAESIPQKTRRTSSEQAVALPRSEEPASCNGKLPLGAEESVAPPGGSRKEVAGMDYLAVPSPLAWSKARIGGHSPIFRTSALPPLDWPLPSQYEQLELRIEVQPRAHHRAHYETEGSRGAVKAAPGGHPVVKLLGYSEKPLTLQMFIGTADERNLRPHAFYQVHRITGKMVATASYEAVVSGTKVLEMTLLPENNMAANIDCAGILKLRNSDIELRKGETDIGRKNTRVRLVFRVHVPQGGGKVVSVQAASVPIECSQRSAQELPQVEAYSPSACSVRGGEELVLTGSNFLPDSKVVFIERGPDGKLQWEEEATVNRLQSNEVTLTLTVPEYSNKRVSRPVQVYFYVSNGRRKRSPTQSFRFLPVICKEEPLPDSSLRGFPSASATPFGTDMDFSPPRPPYPSYPHEDPACETPYLSEGFGYGMPPLYPQTGPPPSYRPGLRMFPETRGTT”, the protein production result is listed as “not failed”.
In the case of “IHFTTEVITSRIEPANRYVAEKLRITPGQDILYLERLRSIGDEKAMLIENRINIELCPGIVEIDFNQHNLFPTIESLSKRKIRYSESRYAARLIGNERGHFLDISEDAPVLHLEQLVFFSRELPVEFGNVWLKG” it was “failed”.
In the case of “MVMNKLILFGSIFFKCWQQNRISISAGYLTYNTMLALVPLVMVVFSVFTFFPIFTEATELLKTFVYDNFAPNAGNVVEEYVELFVSNSQKMGLVSMLGLFIVAVMLISSIDQSLNDIWHNTRKRSLLLSFLLYILILIFAPLLAGASIAITTYIMSFEVFSENGIFSFSHYLLEYAPFLLVWLLFTLVYWIVPNTTVAFRHATIGALFAASFFTLGKQAFIWYVVTFPSYQAIYGTLAVLPIMIVWIHLSWQVVLLGGQFAAVLKEINMLKENER” it was “not failed”; in that of “MDQEAFLRERIEKAQAQLQKLRDENRVLRARQIMWGCIEGTIDVCQLGEKDLQDLSSVIDDYLDSLKSRIEYLKKNGEPSSSLPPRVLQDLNVKEDGDIPSMDGSHHQFETNRLTTITTTADACAPNITNNP”, “failed”.
In the case of “AEVDQATKPAEAKYYIAGTITDATTGQELTTAKVTLGDKSVTSSFNEQVNYKAEGYALVVSADGYYPVKRQVYLNQVSDGQTSVATVNVALVSVEAAVIPPVVPPTDPETDINEGEATKVADKAVEVAKPSESTVTDMLAGTTATPEEKKALDETLEMAGGMKVGETTPEVLADGSILAITPVKFTNPIQDAPAMVPYFYNEGCELTGDVKEVAAPVTRADGAVAADIQKAFLSNAAKALNMNAGFVQKIGYTRISVLNGYSILGYTIKGQLVSKKLTFLISGKYYEGIVSYQKSVMIYPNYYSHDSHDSHDSHGFNPNAGGGSND” it was “not failed”.
With “MIKTSPPMNKLKLNIALSAFFFALVGCQSMPNDPVDIKADLDASIKETKRLNGPKALTQVPNSVQQELMLNNMDQAKQGMLAEKRLEVSATEVDAKDFFQAIVRGSRYNVVIHPDVTGQISLSLNNVTLSEALTVVEDVYGYEIIRRGNVVKVFPPGIRTETIALNYLFLKRFGSSSTTINSGGVSENDPNSGNSSNGNSSNSNNSNSGSNNNQSGNNGSSNQNSGINLYTENESNFWDELKESLTAFVGTGEGRSVIVSPQAGLVTVRALPQELTAVKKFITATESHLHRQVIIEAKIMEVTLNDDFQQGIKWNKVLDQVGSADIIYSTTGNVVGNVISNTIGGVNSINFSKQTSGSDFSGVIELLQTQGNVQVLSSPRITATNNQKAVIKVGEDEYFVTEVSSTTTTGTSTTTTPEVELTPFFSGIALDVTPQISKDGSVILHVHPSVTITEEQSKTIKIGDTTLVLPLAQSSVRESDTIIRANSGEVVVIGGLIETYNIDIESKTPILGDIPYLGELFKNKSQKSQKRELVIMLKPIVVGQDTWKNQLQDARSLLTKWFPEEVDACELSNDGTLTQECQAQCADAEYATEHGVCQMAAQNAASNDN”, the protein production entry was “failed”.
In the case of “ELEHQISGTSKEALLDDIRSLIDSASYTYIRQREMKGLGHAILTGRELVGDEPFAVVLADDLCVNEEQGVLAQMVELYKQFRCSIVAVQEVPETETHKYGVIAGEMIKDDIFRIDNMVEKPEPGTAPSNLAIIGRYILTPDIFELIENTEPGKGGEIQITDALMQQAQSGCVIAYKFKGQRFDCGSVEGYIEATNYCYENLYKKASSAELAKTPTVKVSEPA” it was “failed”; in that of “MTLLRDHDLARAFDHASHTYDGLTALNPGYRTGLLRSARRLALPADGAGLHLLDLGCGTGASTRALLRAAPRARITAVDASAGMLRRALVKPWPARVRFLHLTAEEFATTREDEGPFDAVFAAYLFRNVTDPDAVLRAVRQLLRPGGRFAAHEYSLSGSPGHRALWSAVCRGVVIPAGTLTGDRTLYRHLRRSVVAFDTAPEFAARLTRAGLTSVRVAPVAGWQTGIVHTFLARNGGPTTTEERVL”, “failed”.
As for “MTPNEDLIEIFEDEEISPSLTAKTWPILIVDDDQDVHDVSRLALRGVRLLDYDLETLHAYSAAQARAILSSRSDIAVALLDVVMEREDAGLDLVRWIRSDPARDLLRIVLRTGQPGYAPEATVIQDYDINDYRTKSELNRGRLISILTTALRSYRQMAVIAASRDGLDKIVRASADLLASPSMAIFAEGVLTQLAGLLGTERSGIVLARRNRRPGATASMAMTGDEGFVLAAAGPLSADIGRPLSDIGDHQTAEILRRTLESRRSSFDHGSMALYIATPNGDSLAVLMEVAKTLGDTDRKLVEVFCVNMAAGFDTISLFEQISLQAFHDEATGLPNLAACQSLIDQYLQRRQPVAVTFFSLEGFSAISDTLGRVIGDRMIGLLANAFRHRLQERGEVFRVGQETLATVIGGPVDQVGPLADQLAGDFRAGLPLDSMTLPVSFSHGTSVSTSEHDTAQILVQRAGIAMQKARNIKRGGGLTYAVAMEEEIRAHIGVISKLGAGVVSEAFVAVFQPKIRLADRSCHGGEALVRWRDGDGTMIAPSLFIPAAETSGHIVDIGYSVFRQSCAMIRSLKVSQDDARIAVNLSVRQMREPDLIDKLVSIAAEEGVATTRLKLEITESIVIDDLTHTVSLLKALKDKGFLLALDDFGTGYSSLSYLRSLPIDTLKIDRSFVSGLAEQADMRKIVGLIIGLGHELGFDITAEGVETEEEARIVTEMGCFTAQGYLFSKPLSAEDFLVFARTHAGARQTSGGSLSAEGCIRARDA”, the protein production result is given as “failed”.
In the case of “MAGSGVPSHRSMVIKVSVFAVVMLLVAAGLVVVFGDFRFGPTTVYHATFTDASRLKAGQKVRIAGVPVGSVKAVKLNPDHSIDVAFAIDRSYTLYSSTRAVIRYENLVGDRFLEITSGPGELRKLPPGGTINVAHTQPALDLDALLGGLRPVLKGFDADKINTITSAVIELLQGQGGPLANVLADTGAFSAALGARDQLIGEVITNLNAVLATVDAKSAQFSASVDQLQQLVSGLAKNRDPIAGAISPLASTTTDLTELLRNSRRPLQGILENARPLATELDNRKAEVNNDIEQLGEDYLRLSALGSYGAFFNIYFCSVTIKINGPAGSDILLPIGGQPDPSKGRCAFAK”, the protein production result was “failed”.
In the case of “PVTQVMTPRPVVFRVDATMTINEFLDKHKDTPFSRPLVYSEQKDNIIGFVHRLELFKMQQSGSGQKQLGAVMRPIQVVLNNTALPKVFDQMMTHRLQLALVVDEYGTVLGLVTLEDIFEHLVGE” it was “not failed”.
In the case of “QKDANASSEFYINKLGQTQELEDQQTYKLLAARVLIRENKVEQSAALLRELGELNDAQKLDRALIEARISAAKNANEVAQNQLRALDLNKLSPSQKSRYYETLAIVAENRKDMIEAVKARIEMDKNLTDVQRHQDNIDKTWALLRSANTGVINNASDEGNAALGGWLTLIKAYNDYIRQPVQLSQALQSWKNAYPNHAAATLFPKELLTLLNFQQTNVSQIGLLLPLSGDGQILGTTIQSGFNDAKGNSTIPVQVFDTSMNSVQDIIAQAKQAGIKTLVGPLLKQNLDVILADPAQIQGMDVLALNATPNSRAIPQLCYYGLSPEDEAESAANKMWNDGVRNPLVAMPQNDLGQRVGNAFNVRWQQLAGTDANIRYYNLPADVTYFVQENNSNTTALYAVASPTELAEMKGYLTNIVPNLAIYASSRASASATNTNTDFIAQMNGVQFSDIPFFKDTNSPQYQKLAKSTGGEYQLMRLYAMGADAWLLINQFNELRQVPGYRLSGLTGILSADTNCNVERDMTWYQYQDGAIVPVAN” it was “failed”; in that of “MQAIRSILVVIEPDQLEGLALKRAQLIAGVTQSHLHLLVCEKRRDHSAALNDLAQELREEGYSVSTNQAWKDSLHQTIIAEQQAEGCGLIIKQHFPDNPLKKAILTPDDWKLLRFAPCPVLMTKTARPWTGGKILAAVDVGNNDGEHRSLHAGIISHAYDIAGLAKATLHVISAHPSPMLSSADPTFQLSETIEARYREACRTFQAEYGFSDEQLHIEEGPADVLIPRTAQKLDAVVTVIGTVARTGLSGALIGNTAEVVLDTLESDVLVLKPDDIIAHLEELASKE”, “not failed”.
For the sequence “MMPLSTPDFASIRDTLLRDLQNLRADADIAPDSDYFVRASSVASAVEGLYQHQSWIARQIFPDTADSEYLEQHARLRGIVRKPAAAASGTLRISGNAGAVVSGSLQLRIGEQLYATPAANPDGSPYAARLDANGQAELPIFASQAGAAGNQPESLPVELMQAPSGVSAKALLLSMRNGVDVEDDAALLDRLLELIRRPPAGGNRHDYRRWAMEVKGVSAAYVYPLRRGLGTVDVVITANGDLPSQEILNNVQAHIEDLRPVTAKSCLVLAPTPRPVDIDVALNLGGANLDAFTPLLQQTLQAYFAGLAPGERLVKSRIEALISDLPGVQDRQLNSPAGNVDPVSDPTKVEWLRLGKLTVGLLKLEHHHHHH”, the protein production entry is on record as “not failed”.
In the case of “MKRLMFIGPSQCGKTSLTQSLRGEALHYKKTQAIEWSPMAIDTPGEYLENRCLYSALLTSACEADVIALVLNADAQWSPFSPGFTAPMNRPTIGLVTKADLAEPQRISLVAEWLTQAGAQQIFITSALNNSGLDAVLDFLNSKEPLCLTKLEHHHHHH” it was “not failed”.
In the case of “MAMSFSGAVLTGMASSFHSGAKQSSFGAVRVGQKTQFVVVSQRKKSLIYAAKGDGNILDDLNEATKKASDFVTDKTKEALADGEKAKDYVVEKNSETADTLGKEAEKAAAYVEEKGKEAANKAAEFAEGKAGEAKDATK” it was “failed”; in that of “MRSTVAEPPVLDKIIKNVRVVRPHNDAVELLDIGIKDGKFAQIAPNITPDTGQEIFDAKNLLGFPGVVDAHMHIGIYQPLDKDAVTESKAAAMGGVTTSLNYIRTGQYYLNKGGSYRDFFPEVLALSAGNFFVDYSYHVAPIASQHIDEIPLLFEEHGVTSFKIFMFYGGYGLHGLSDQQNLFLMINKEERYDFAHFEFIMRGVTRLMAEYPEARDYISLSLHCEVAEILNAYTKIVENDSSLSGLHAYSAARPPHSEGLAISIAAYLAHETNCANINLLHLSSRKAMEAALIMQTAFPHINFRREVTVGHLLLDVDTPNGTWAKVNPPIRPRADVEYLWQAVLNHQVDWIVSDHACCSAEQKRSAKDPNNIWLAKSGFGGTEYLLSGVVSEGSKRGMSYNHMAKLLSWNPSRRFGLLTKGDIAIGYDADLVLVDPNESFVVRAAESESQQGYTPFEGMELTGRVKSTFLRGSLIYHNGQVLGSPNGRYVRRSLGG”, “failed”.
